Entries after “also recorded” stand apart in the source; their conditions may differ.
B1: C142: STARS deletion mutant that encoded only the conserved carboxy-terminal region (142 amino acids) (protein)
chain: KAQQKYSPVGNLKGRWQQWADEHIQSQKLNPFSEEFDYELAMSTRLHKGDEGYGRPKEGTKTAERAKRAEEHIYREMMDMCFIICTMARHRRDGKIQVTFGDLFDRYVRISDKVVGILMRARKHGLVDFEGEMLWQGRDDHV
modifications: left off: small tags and cut ends
B2: Del248-262: small internal STARS deletion mutant within the conserved region (protein)
chain: MAPGEKESGEGPAKSALRKIRTATLVISLARGWQQWANENSIRQAQEPTGWLPGGTQDSPQAPKPITPPTSHQKAQSAPKSPPRLPEGHGDGQSSEKAPEVSHIKKKEVSKTVVSKTYERGGDVSHLSHRYERDAGVLEPGQPENDIDRILHSHGSPTRRRKCANLVSELTKGWRVMEQEEPTWRSDSVDTEDSGYGGEAEERPEQDGVQVAVVRIKRPLPSQVNRFTEKLNCKAQQKYSPVGNLKGNPFSEEFDYELAMSTRLHKGDEGYGRPKEGTKTAERAKRAEEHIYREMMDMCFIICTMARHRRDGKIQVTFGDLFDRYVRISDKVVGILMRARKHGLVDFEGEMLWQGRDDHV
modifications: left off: small tags and cut ends
notes: small internal STARS deletion mutant within the conserved region
B3: N100: STARS deletion mutant lacking residues from the carboxy-terminus into the conserved region (protein)
chain: MAPGEKESGEGPAKSALRKIRTATLVISLARGWQQWANENSIRQAQEPTGWLPGGTQDSPQAPKPITPPTSHQKAQSAPKSPPRLPEGHGDGQSSEKAPE
modifications: left off: small tags and cut ends
notes: STARS deletion mutant lacking residues from the carboxy-terminus into the conserved region
B4: STARS: novel 375-amino acid muscle-specific actin-binding protein, expressed from a Myc-tagged expression vector (protein, UniProt Q8BUZ1 1-375, looked up)
Actin-binding Rho-activating …: MAPGEREREAGPAKSALRKVRTATLVINLARGWQQWANENSTKQAQEPAGWLPGATHDLPNAPKEAGPYQHAPKTLSPKPDRDGEGQHSEEATEVSHIKRKEVTRTVVSKAYERGGDVNYLSHRYENDGGVSEAIQPENDIDRILLSHDSPTRRRKCTNLVSELTKGWKVMEQEEPTWKSDSVDTEDSGYGGDMEERPEQDAAPVAPARIKRPLLSQANRYSETLNCKAHRKYSQVDNLKGRWQQWADEHVQSQKLNPFSDEFDYDLAMSTRLHKGDEGYGRPKEGSKTAERAKRAEEHIYREIMELCFVIRTMARHRRDGKIQVTFGELFDRYVRISDKVVGILMRARKHGLVHFEGEMLWQGRDDHVVITLLE
modifications: Myc tag
B5: N101-233: STARS deletion mutant lacking residues from the carboxy-terminus into the conserved region (protein)
chain: VSHIKKKEVSKTVVSKTYERGGDVSHLSHRYERDAGVLEPGQPENDIDRILHSHGSPTRRRKCANLVSELTKGWRVMEQEEPTWRSDSVDTEDSGYGGEAEERPEQDGVQVAVVRIKRPLPSQVNRFTEKLNC
modifications: left off: small tags and cut ends
notes: as for B3
B6: Del234-247: small internal STARS deletion mutant within the conserved region (protein)
chain: MAPGEKESGEGPAKSALRKIRTATLVISLARGWQQWANENSIRQAQEPTGWLPGGTQDSPQAPKPITPPTSHQKAQSAPKSPPRLPEGHGDGQSSEKAPEVSHIKKKEVSKTVVSKTYERGGDVSHLSHRYERDAGVLEPGQPENDIDRILHSHGSPTRRRKCANLVSELTKGWRVMEQEEPTWRSDSVDTEDSGYGGEAEERPEQDGVQVAVVRIKRPLPSQVNRFTEKLNCRWQQWADEHIQSQKLNPFSEEFDYELAMSTRLHKGDEGYGRPKEGTKTAERAKRAEEHIYREMMDMCFIICTMARHRRDGKIQVTFGDLFDRYVRISDKVVGILMRARKHGLVDFEGEMLWQGRDDHV
modifications: left off: small tags and cut ends
notes: as for B2
B7: Del263-279: small internal STARS deletion mutant within the conserved region (protein)
chain: MAPGEKESGEGPAKSALRKIRTATLVISLARGWQQWANENSIRQAQEPTGWLPGGTQDSPQAPKPITPPTSHQKAQSAPKSPPRLPEGHGDGQSSEKAPEVSHIKKKEVSKTVVSKTYERGGDVSHLSHRYERDAGVLEPGQPENDIDRILHSHGSPTRRRKCANLVSELTKGWRVMEQEEPTWRSDSVDTEDSGYGGEAEERPEQDGVQVAVVRIKRPLPSQVNRFTEKLNCKAQQKYSPVGNLKGRWQQWADEHIQSQKLHKGDEGYGRPKEGTKTAERAKRAEEHIYREMMDMCFIICTMARHRRDGKIQVTFGDLFDRYVRISDKVVGILMRARKHGLVDFEGEMLWQGRDDHV
modifications: left off: small tags and cut ends
notes: as for B2

Columns and labels:
[1] = test system: actin; assay: Co-immunoprecipitation of Myc-tagged proteins with actin in COS cells; format: binding; details: anti-Myc immunoprecipitation, anti-actin Western blot
Description: Western Blot and Co-immunoprecipitation Assay. Immunoprecipitation and western blot analysis was performed as described previously (Lu et al., 2000). For immunoprecipitation, cells were incubated with 1 μg anti c-myc polyclonal antibody A14 (Santa Cruz). Western blots were performed with anti-actin monoclonal antibody C4 (1:100; Roche Molecular Biochemicals) or anti c-myc monoclonal antibody 9E10 (1:1000; Santa Cruse) followed by incubation with secondary antibody HRP-conjugated anti mouse-IgG (Santa Cruse, Vector). To detect signals, blots were incubated with ECL (Santa Cruz) for 1 min, and exposed to film (Eastman Kodak Co).

[2] = test system: SM22 promoter; assay: SM22-luciferase reporter assay in transiently transfected COS cells; format: cell-based; details: for activation of SM22-luciferase / SRF transcription, in words: STARS and deletion mutants
Source text: (§1) STARS Expression Plasmids. STARS expression constructs were generated using the pcDNA3.1 mammalian expression vector (Invitrogen) which was modified to contain an amino-terminal Myc-tag. Constitutively active RhoA (L63) and C3 transferase in Prk5 were generously provided by Dr. Alan Hall (University College, London, United Kingdom). The SM22-luciferase reporter 1343 bp promoter has been previously described (Li et al., 1995). The smooth muscle α actin-luciferase reporter contained the 4 kb promoter region ligated into the pBL3basic vector (Promega). The ANF reporter contained the 638 bp promoter region (a generous gift from Dr. Mona Nemer, Universite de Montreal, Montreal, Quebec, Canada). The 4× cfos reporter contained four tandem copies of the cfos CArG box with flanking sequences, as described (Chang et al., 2001). CMV-lacZ (Promega) was used as an internal control for transfection efficiency.
(§2) Transient Transfections, Reporter Assays and Immunofluorescence Microscopy. COS cells were maintained in DMEM with 10% FBS. Eighteen hours after plating, the medium was changed to serum-free medium and transfections were performed at 50% confluency using FuGENE reagent-6 (Roche Molecular Biochemicals) following manufacturer's instructions. Each transfection used 0.15 μg of plasmid DNA for the reporter assays, and 0.5-1.0 μg immunohistochemistry. Cytochalasin D 2 μM (Sigma-Aldrich), and Y-27632 75 μM (Tocris) were added directly just after transfection. Latrunculin B 0.5 μM (dissolved in 10% ethanol, Calbiochem) was added 12 hr after transfection and 10% ethanol (final concentration 0.01%) was added to control wells. Cells were harvested 36 hr after transfection and their luciferase and β-galactosidase activity were measured.

[3] = test system: F-actin; assay: Immunofluorescence / Phalloidin-TRITC staining of transfected COS cells; format: cell-based; details: transfected COS cells, Myc-tagged proteins
Description: as §2
For measuring immunofluorescence, cells were rinsed with PBS and fixed in 4% paraformaldehyde for 10 min on ice. After rinsing with PBS, COS cells were incubated in 0.1% Triton X-100 in PBS for 5 min on ice. For rat neonatal cardiomyocytes, 1% Triton X-100 in PBS was used. Cells were blocked for 20 min at room temperature in 0.5% BSA in PBS for COS cells and in 1% BSA plus 3% goat serum in PBS for rat cardiomyocytes. Then, cells were incubated with first antibody diluted in 0.5% BSA in PBS for 30-60 min at room temperature or overnight at 4° C. Anti c-myc monoclonal antibody 9E10 (Santa Cruz) was used at a 1:200 dilution. Other antibodies were anti α-actinin monoclonal antibody (1:400; Sigma-Aldrich), α-tubulin antibody (1:2000; Sigma-Aldrich) and anti-vimentin antibody (1:500; Sigma-Aldrich). Secondary antibodies were anti mouse/rabbit IgG FITC or Texas red (Vector) used at a 1:200 dilution incubated with or without Phalloidin-TRITC (1:500; Sigma Aldrich).

[4] = test system: cytomegalovirus promoter; assay: cytomegalovirus promoter reporter assay; format: cell-based; details: data not shown
Source text: as §1
(§3) Transient Transfections, Reporter Assays and Immunofluorescence Microscopy. COS cells were maintained in DMEM with 10% FBS. Eighteen hours after plating, the medium was changed to serum-free medium and transfections were performed at 50% confluency using FuGENE reagent-6 (Roche Molecular Biochemicals) following manufacturer's instructions. […] Cells were harvested 36 hr after transfection and their luciferase and β-galactosidase activity were measured.

[5] = test system: E1b promoter linked to four tandem copies of the CArG box from the c-fos promoter; assay: 4× cfos CArG box reporter assay in COS cells; format: cell-based
Source text: as §1, §3

[6] = test system: SM22 promoter; assay: SM22-luciferase reporter assay in F9 cells; format: cell-based; details: low endogenous SRF expression
[7] = test system: atrial natriuretic factor (ANF) promoter; assay: ANF reporter assay in COS cells; format: cell-based
Source text: as §1, §3

[8] = test system: α-smooth muscle actin promoter; assay: smooth muscle α actin-luciferase reporter assay in COS cells; format: cell-based
Source text: as §1, §3

| Molecule | co-immunoprecipitation with actin [1] | activation of SM22-luciferase / SRF transcription, in words ([2]; COS cells) | association with F-actin / actin stress fibers [3] | bundling of actin stress fibers [3] | also measured |
| --- | --- | --- | --- | --- | --- |
| B1 | co-immunoprecipitated with actin | as effective as the full-length protein; also recorded: activate SRF transcription | associated with F-actin | increased stress fibers; also recorded: induce actin bundles | – |
| B2 | weak actin-binding activity | activate SRF transcription | – | induce actin bundles | – |
| B3 | did not bind actin | – | did not affect the association with F-actin | abolished the ability of STARS to bundle actin stress fibers | – |
| B4 | co-immunoprecipitated with actin | activate SRF transcription | strongly colocalized with F-actin | induced stress fiber formation and bundling | activation of cytomegalovirus promoter [4]: did not activate; activation of the SM22 promoter ([2]; COS cells, STARS or RhoA (L63) expression vector alone): comparable levels; increase of SM22 promoter activity by STARS ([2]; COS cells, in the presence of CD (2 μM)): 18 fold; responsiveness of SM22 promoter with mutated CArG boxes ([2]; COS cells, mutSM22 reporter): abolished responsiveness; stimulation of expression of SM22 luciferase reporter ([2]; transiently transfected COS cells, STARS expression vector): 40 fold; association with F-actin / actin stress fibers ([3]; listed as STARS (wt)): strongly associates with F-actin; bundling of actin stress fibers ([3]; listed as STARS (wt)): induces extremely thick bundles; bundling of actin stress fibers ([3]; listed as Wild type STARS): induce actin bundles; activation of E1b promoter with four c-fos CArG boxes [5]: activated; effect on the SM22 promoter [6]: minimal effect; stimulation of ANF promoter [7]: did not stimulate; also recorded: could not activate; stimulation of α-smooth muscle actin promoter [8]: weakly stimulated |
| B5 | did not bind actin | – | did not affect the association with F-actin | abolished the ability of STARS to bundle actin stress fibers | – |
| B6 | weak actin-binding activity | activate SRF transcription | – | induce actin bundles | – |
| B7 | weak actin-binding activity | activate SRF transcription | – | induce actin bundles | – |

From patent US7405286B2, “Stars—A muscle-specific actin-binding protein” (The Board of Regents of the University of Texas System, priority 2002, dated 2008)
